Results reported in patent publication US20230265179A1.
Numbering of substitutions follows the chain as printed.

B1: CD40L-141 (VHH)
VHH: EVQLVESGGGLVQPGGSLRLSCAASGGTLDDYAMGWFRQAPGKEREFLASVSWGFGSTYYADSVKGRFTISADNSKNTAYLQMNSLKPEDTAVYYCAKDGGSYGMDVWGQGTLVTVSS
B2: CD40L-154 (VHH)
VHH: EVQLVESGGGLVQPGGSLRLSCAASGRTSRSYEMGWFRQAPGKEREFVAAIDWDGSRTQYADSVKGRFTISADNSKNTAYLQMNSLKPEDTAVYYCAVPRETGWDGDWGQGTLVTVSS
B3: CD40L-182 (antibody, V domains shown)
VH: EVQLLESGGGLVQPGGSLRLSCAASGGYNFRDYMHWVRQAPGKGLEWVSYISSSGSSTYYADSVKGRFTISRDNSKNTLYLQMNSLRAEDTAVYYCAKNLGQGFDYWGQGTLVTVSS
VL: DIQMTQSPSSLSASVGDRVTITCSGDNLGDKYVHWYQQKPGKAPKLLIYGKKNRPSGVPSRFSGSGSGTDFTLTISSLQPEDFATYYCQAWDRTVVFGQGTKVEIK
B4: CD40L-385 (antibody, V domains shown)
VH: EVQLLESGGGLVQPGGSLRLSCAASGFTFSNYAMSWVRQAPGKGLEWVSAITGSGSTTYYADSVKGRFTISRDNSKNTLYLQMNSLRAEDTAVYYCARAHDYDSMLMDYWGQGTLVTVSS
VL: DIQMTQSPSSLSASVGDRVTITCRASQSIKSYLNWYQQKPGKAPKLLIYSASSLLSGVPSRFSGSGSGTDFTLTISSLQPEDFATYYCQQSYTLPRTFGGGTKVEIK
B5: CD40L-392 (antibody, V domains shown)
VH: EVQLLESGGGLVQPGGSLRLSCAASGFTFSSFDMTWVRQAPGKGLEWVSGISGSGGTTFYADSVKGRFTISRDNSKNTLYLQMNSLRAEDTAVYYCVRDVSDIYGYLDDAFDIWGQGTLVTVSS
VL: B4 VL with S28D, K30R, S31N, S50A, A51T, L55Q, S56T, T93G, L94A, R96L
B6: CD40L-401 (antibody, V domains shown)
VH: EVQLLESGGGLVQPGGSLRLSCAASGFTFGNYAMTWVRQAPGKGLEWVSAISGLGGSTYYADSVKGRFTISRDNSKNTLYLQMNSLRAEDTAVYYCTSSDPTYYYDSNGKSSLGMDVWGQGTLVTVSS
VL: B4 VL with A25G, K30S, Y32F, S50A, S53K, L55H, Q90H, T93S, L94T, R96L
B7: CD40L-410 (antibody, V domains shown)
VH: EVQLLESGGGLVQPGGSLRLSCAASGFTFRTYAMGWVRQAPGKGLEWVSAISGSGGIAYYADSVKGRFTISRDNSKNTLYLQMNSLRAEDTAVYYCARHYYYDSSDAFDIWGQGTLVTISS
VL: B4 VL with S9F, S28N, K30L, S31T, S50G, S53T, L55R, T93R, R96L
B8: CD40L-417 (antibody, V domains shown)
VH: EVQLLESGGGLVQPGGSLRLSCAASGFTFSKYAMNWVRQAPGKGLEWVSAISGSGESTYYADSVKGRFTISRDNSKNTLYLQMNSLRAEDTAVYYCARHGGYYYYYMDVWGQGTLVTVSS
VL: B4 VL with A25G, K30S, Y32F, S50A, S53K, L55H, Q90H, T93S, L94T, R96L
B9: CD40L-421 (antibody, V domains shown)
VH: EVQLLESGGGLVQPGGSLRLSCAASGFTFSKYAMNWVRQAPGKGLEWVSAISGSGESTYYADSVKGRFTISRDNSKNTLYLQMNSLRAEDTAVYYCATDYGDYDRLNFDLWGQGTLVTVSS
VL: B4 VL with A25G, K30S, Y32F, S50A, S53K, L55H, Q90H, T93S, L94T, R96L

The binders below were run against CD40L over-expressed on Expi293 cells (UniProt P29965) (assay: flow cytometry, 100 nM antibody, CD40L-Expi293 vs parent Expi293 cells).
CD40L over-expressed on Expi293 cells, sequence (P29965 whole entry): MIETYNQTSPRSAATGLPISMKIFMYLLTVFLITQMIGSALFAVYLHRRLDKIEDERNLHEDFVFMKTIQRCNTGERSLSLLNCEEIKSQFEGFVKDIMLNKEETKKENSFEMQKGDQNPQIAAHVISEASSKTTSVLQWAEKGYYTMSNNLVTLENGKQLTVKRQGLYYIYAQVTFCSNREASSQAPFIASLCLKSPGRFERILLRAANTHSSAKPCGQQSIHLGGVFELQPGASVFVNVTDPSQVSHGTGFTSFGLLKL

Binder | 100 nM FACS (MFI Ratio)
B1 | 2
B2 | 1.9
B3 | 1.8

Each binder was assayed against CD40L (UniProt P29965) (assay: flow cytometry, 100 nM IgG, CD40L over-expressing Expi293 cells over parent Expi293 cells).
CD40L, sequence (P29965 whole entry): as above

Binder | 100 nM FACS (MFI Ratio) [MFI ratio]
B4 | 1.9
B5 | 2
B6 | 1.8
B7 | 1.8
B8 | 1.7
B9 | 1.9
